The values below come from patent US20180238866A1 (University of California, published 2018).

Where no end group is shown, it is not given here.

B3: secreted phospholipase A2 type IIA (sPLA2-IIA), wild type, recombinant (enzyme)
chain: NLVNFHRMIKLTTGKEAALSYGFYGCHCGVGGRGSPKDATDRCCVTHDCCYKRLEKRGCGTKFLSYKFSNSGSRITCAKQDSCRSQLCECDKAAATCFARNKTTYNKKYQYYSNKHCRGSTPRC
modifications: FITC-labeled in the flow cytometry binding assays of FIG. 7a-b ; FITC-labelled in the flow cytometry binding assays (FIG. 7a-b).
notes: PDB 1DCY was used for it in the docking simulation; also called WT sPLA2-IIA; sPLA-IIA

In assay [1] the target is T1, integrin αvβ3 on the cell surface of U937 cells and of K562 cells that express human integrin αvβ3 (human, UniProt P06756 31-1048; P05106 27-788).
T1 construct: whole, on cells; Two cell types carry the same human integrin; also called αvβ3 on U937; αvβ3-K562
In words: flow cytometry, FITC-γC399tr on U937 and αvβ3-K562 cells with sPLA2-IIA (20 µg/ml) and Cmpd21. (In general: A flow cytometer gives signals particle by particle.)
Source text: (§1) The cells were washed with PBS/0.02% BSA and analyzed by FACSCalibur (Becton Dickinson, Mountain View, Calif.).

The target in assay [2] is T2, recombinant soluble integrin αvβ3 (UniProt P06756 31-992; P05106 27-718, limits assumed).
T2 construct: also called soluble αvβ3
In words: ELISA-type: soluble αvβ3 (5 µg/ml) on immobilized γC399tr, 1 mM Ca2+, with sPLA2-IIA; bound αvβ3 detected with anti-β3 mAb AV-10.
Procedure: Remaining protein binding sites were blocked by incubating with PBS/0.1% BSA for 30 min at room temperature.

Assay [3] concerns the target T1, integrin αvβ3 on the cell surface of …. In words: flow cytometry, FITC-labeled ADAM15 on U937 and αvβ3-K562 cells, with sPLA2-IIA (20 µg/ml).
Source text: Data are shown as means (MFI)±SEM of three independent experiments.
as §1
The target of assay [4] is T3, integrin α5β1 on K562 cells and U937 cells (UniProt P08648 42-1049; P05556 21-798, limits assumed).
T3 construct: whole, on cells
In words: flow cytometry, FITC-sPLA2-IIA (10 µg/ml) on K562 cells.
Procedure: Bound FITC was measured using flow cytometry. Data are shown as means±SEM of MFI of three independent experiments. c. […] Data are shown as means±SEM of % adhesion of three independent experiments. d-f. […] Data are shown as means±SEM of MFI of three independent experiments. […] Data are shown as means±SEM of MFI of three independent experiments, j-l. […] Data are shown as means±SEM of MFI of three independent experiments.

Assay [5] deals with T4, control GST (UniProt P08515 1-218 = GST).
T4 construct: Control protein
In words: ELISA-type: GST-tagged protein on immobilized sPLA2-IIA, anti-GST-HRP. On the technique in general: An ELISA detects its analyte on a solid surface through an enzyme-linked reagent.
Procedure: Remaining protein binding sites were blocked by incubating with PBS/0.1% BSA for 30 min at room temperature. After washing with PBS, S2 peptides were added to the wells and incubated in PBS for 2 h at room temperature.

In assay [6] the target is B3. In words: ELISA-type: GST-tagged peptide on immobilized sPLA2-IIA, anti-GST-HRP.
Assay [7] addresses T3, integrin α5β1 on K562 cells and U937 …. In words: flow cytometry, FITC-FN8-11 on U937 and K562 cells, with sPLA2-IIA.
Procedure: Bound FITC was measured using flow cytometry.
as §1

T1 sequence (P06756 31-1048, chain 1 of 2): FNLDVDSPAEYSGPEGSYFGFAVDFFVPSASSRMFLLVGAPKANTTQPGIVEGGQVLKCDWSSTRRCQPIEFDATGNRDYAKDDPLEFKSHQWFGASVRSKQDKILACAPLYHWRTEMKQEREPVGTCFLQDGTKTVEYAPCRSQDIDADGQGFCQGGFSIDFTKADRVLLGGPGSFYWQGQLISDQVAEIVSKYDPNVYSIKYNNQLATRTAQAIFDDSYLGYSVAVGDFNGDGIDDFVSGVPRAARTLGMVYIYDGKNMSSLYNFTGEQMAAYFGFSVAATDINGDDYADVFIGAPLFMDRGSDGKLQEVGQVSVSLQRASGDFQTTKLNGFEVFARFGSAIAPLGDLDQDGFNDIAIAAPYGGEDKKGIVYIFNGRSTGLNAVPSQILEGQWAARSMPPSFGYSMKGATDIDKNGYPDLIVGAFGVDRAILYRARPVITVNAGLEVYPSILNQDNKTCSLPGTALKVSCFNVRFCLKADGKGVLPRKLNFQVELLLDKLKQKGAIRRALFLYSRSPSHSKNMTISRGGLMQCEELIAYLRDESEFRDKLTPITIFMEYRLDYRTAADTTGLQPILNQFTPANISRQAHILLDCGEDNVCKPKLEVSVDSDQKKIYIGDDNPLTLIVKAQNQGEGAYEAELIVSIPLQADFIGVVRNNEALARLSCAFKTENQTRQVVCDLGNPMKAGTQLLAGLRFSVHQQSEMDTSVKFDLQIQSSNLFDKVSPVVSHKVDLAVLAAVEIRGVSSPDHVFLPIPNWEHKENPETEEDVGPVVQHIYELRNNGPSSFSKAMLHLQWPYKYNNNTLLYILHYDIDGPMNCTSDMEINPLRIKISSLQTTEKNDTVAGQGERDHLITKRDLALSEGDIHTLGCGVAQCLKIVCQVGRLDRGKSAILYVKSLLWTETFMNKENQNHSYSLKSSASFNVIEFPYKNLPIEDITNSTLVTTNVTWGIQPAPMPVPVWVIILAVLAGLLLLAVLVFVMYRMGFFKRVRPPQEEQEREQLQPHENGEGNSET
T1 sequence (P05106 27-788, chain 2 of 2): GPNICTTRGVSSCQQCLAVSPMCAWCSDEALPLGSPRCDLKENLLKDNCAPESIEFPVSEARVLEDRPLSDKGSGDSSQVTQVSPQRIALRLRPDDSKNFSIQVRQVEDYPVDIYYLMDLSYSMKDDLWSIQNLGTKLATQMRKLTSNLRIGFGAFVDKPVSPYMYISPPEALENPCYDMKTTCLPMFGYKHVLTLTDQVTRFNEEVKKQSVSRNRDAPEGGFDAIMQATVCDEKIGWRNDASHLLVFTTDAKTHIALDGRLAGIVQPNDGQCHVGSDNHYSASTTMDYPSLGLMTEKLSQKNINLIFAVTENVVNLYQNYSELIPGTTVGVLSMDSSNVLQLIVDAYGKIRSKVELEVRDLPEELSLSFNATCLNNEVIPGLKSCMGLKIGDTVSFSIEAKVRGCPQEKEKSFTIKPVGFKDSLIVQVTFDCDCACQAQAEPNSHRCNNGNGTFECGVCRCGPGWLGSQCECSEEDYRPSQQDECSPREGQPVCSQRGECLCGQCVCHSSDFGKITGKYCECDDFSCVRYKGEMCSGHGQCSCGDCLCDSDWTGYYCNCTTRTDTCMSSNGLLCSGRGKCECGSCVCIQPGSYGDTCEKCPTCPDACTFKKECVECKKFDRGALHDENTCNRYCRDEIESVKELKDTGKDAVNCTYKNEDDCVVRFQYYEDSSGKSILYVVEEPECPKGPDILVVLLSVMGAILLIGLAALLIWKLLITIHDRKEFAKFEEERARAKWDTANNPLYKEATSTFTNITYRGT
T3 sequence (P08648 42-1049 limits assumed, chain 1 of 2): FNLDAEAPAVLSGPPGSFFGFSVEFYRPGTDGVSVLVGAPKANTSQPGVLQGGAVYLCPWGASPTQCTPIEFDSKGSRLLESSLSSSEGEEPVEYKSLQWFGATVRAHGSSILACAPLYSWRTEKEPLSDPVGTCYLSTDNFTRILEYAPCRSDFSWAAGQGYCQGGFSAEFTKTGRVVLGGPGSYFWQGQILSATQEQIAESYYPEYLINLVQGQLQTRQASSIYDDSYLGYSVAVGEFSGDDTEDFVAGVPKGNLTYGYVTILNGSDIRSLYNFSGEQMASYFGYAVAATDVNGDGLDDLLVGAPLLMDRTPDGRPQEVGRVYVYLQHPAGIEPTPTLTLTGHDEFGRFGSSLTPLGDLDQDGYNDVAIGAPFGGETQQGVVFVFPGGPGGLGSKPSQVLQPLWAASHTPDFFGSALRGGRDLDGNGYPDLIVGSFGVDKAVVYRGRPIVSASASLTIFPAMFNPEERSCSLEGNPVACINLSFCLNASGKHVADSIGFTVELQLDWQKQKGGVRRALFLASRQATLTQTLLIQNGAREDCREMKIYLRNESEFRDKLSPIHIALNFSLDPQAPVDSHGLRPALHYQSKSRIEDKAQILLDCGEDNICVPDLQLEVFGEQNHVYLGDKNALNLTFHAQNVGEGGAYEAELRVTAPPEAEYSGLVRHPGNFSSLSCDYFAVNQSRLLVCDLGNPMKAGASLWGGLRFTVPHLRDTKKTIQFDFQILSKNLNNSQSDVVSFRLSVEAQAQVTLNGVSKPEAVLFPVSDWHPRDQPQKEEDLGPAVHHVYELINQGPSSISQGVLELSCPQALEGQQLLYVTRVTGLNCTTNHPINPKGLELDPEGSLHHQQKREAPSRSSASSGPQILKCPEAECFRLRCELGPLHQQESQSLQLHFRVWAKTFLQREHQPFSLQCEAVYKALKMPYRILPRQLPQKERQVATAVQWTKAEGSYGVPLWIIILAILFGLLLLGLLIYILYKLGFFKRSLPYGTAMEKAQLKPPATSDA
T3 sequence (P05556 21-798 limits assumed, chain 2 of 2): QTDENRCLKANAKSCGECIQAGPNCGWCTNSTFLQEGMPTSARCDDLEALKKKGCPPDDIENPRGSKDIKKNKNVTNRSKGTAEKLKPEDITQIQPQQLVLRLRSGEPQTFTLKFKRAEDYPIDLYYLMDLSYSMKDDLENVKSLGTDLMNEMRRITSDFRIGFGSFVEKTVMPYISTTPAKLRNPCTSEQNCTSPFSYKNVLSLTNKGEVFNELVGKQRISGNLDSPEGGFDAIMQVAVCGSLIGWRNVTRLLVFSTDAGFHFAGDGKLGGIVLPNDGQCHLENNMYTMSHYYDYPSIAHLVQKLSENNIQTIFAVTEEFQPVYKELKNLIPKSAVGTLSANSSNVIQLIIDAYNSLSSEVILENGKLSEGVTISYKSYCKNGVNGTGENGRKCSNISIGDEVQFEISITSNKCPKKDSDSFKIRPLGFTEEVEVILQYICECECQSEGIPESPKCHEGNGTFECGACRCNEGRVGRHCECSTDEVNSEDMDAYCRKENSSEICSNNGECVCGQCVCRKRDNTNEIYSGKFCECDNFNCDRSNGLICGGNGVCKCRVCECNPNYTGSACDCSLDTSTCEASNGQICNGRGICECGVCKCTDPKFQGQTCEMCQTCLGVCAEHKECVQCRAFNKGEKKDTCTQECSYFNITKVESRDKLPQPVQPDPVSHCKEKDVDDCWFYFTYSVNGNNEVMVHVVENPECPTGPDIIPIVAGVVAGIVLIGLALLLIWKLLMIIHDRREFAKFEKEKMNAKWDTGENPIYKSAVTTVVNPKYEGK
T4 sequence (P08515 whole entry): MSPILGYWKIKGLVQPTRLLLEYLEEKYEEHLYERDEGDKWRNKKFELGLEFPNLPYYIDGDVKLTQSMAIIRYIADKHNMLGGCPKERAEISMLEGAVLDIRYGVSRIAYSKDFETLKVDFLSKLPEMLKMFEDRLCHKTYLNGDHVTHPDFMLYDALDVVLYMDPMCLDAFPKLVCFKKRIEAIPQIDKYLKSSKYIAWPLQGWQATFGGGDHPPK

B1: Fibrinogen γ-chain C-terminal domain that lacks residues 400-411 (γC399tr) (ligand, UniProt P02679 177-425, looked up)
chain: KDCQDIANKGAKQSGLYFIKPLKANQQFLVYCEIDGSGNGWTVFQKRLDGSVDFKKNWIQYKEGFGHLSPTGTTEFWLGNEKIHLISTQSAIPYALRVELEDWNGRTSTADYAMFKVGPEADKYRLTYAYFAGGDAGDAFDGFDFGDDPSDKFFTSHNGMQFSTWDNDNDKFEGNCAEQDGSGWWMNKCHAGHLNGVYYQGGTYSKASTPNGYDNGIIWATWKTRWYSMKKTTMKIIPFNRLTIGEGQQ
modifications: FITC-labeled in the flow cytometry assays
notes: domain: Fibrinogen γ-chain C-terminal domain that lacks residues 400-411
In the case of B1, the binding result in assay [1] and in assay [2] was “binds” in each case.

B2: disintegrin domain of human ADAM15, GST fusion protein (ligand)
chain: not shown
modifications: FITC-labeled in the flow cytometry assays
notes: domain: disintegrin domain; also called ADAM15 disintegrin domain; not shown: glutathione S-transferase (GST) fusion partner
In the case of B2, the binding result in assay [3] is reported as “binds”.

Take B3: the figures for the binding result in assay [4] and in assay [5] were “binds” and “no binding”, respectively.

B4: scrambled site 2 peptide of β3 (S2-β3scr), GST fusion (peptide)
chain: HHHHHHVHDSHYSGQGAMSDNTNSPQT
modifications: also: GST fusion protein, GST not in chain
notes: Control peptide; also called scrambled S2-β3 peptide; scrambled β3 peptide; not shown: glutathione S-transferase (GST) from vector pGEX-2T
As to B4, in assay [6], the binding result is on record as “no binding”.

B5: rat fibronectin type III domains 8-11 (FN8-11), GST fusion protein (ligand)
chain: not shown
modifications: FITC-labeled in the flow cytometry assays
notes: domain: Fibronectin type III domains 8-11; also called RGD-containing fibronectin fragment; not shown: glutathione S-transferase (GST) fusion partner
As to B5, the binding result in assay [7] is given as “binds”.
